A word on the EC50: it is the concentration at which the effect is half-maximal. Read a high EC50 as a less potent agent.

The target of experiment [1] is H1 (A/Cali/09/2007). Kind of experiment: ELISA.
Experiment [2] deals with H3 (A/Brisbane/10/2007) (influenza A virus H3 …). Briefly: ELISA. (In an ELISA, binding on a coated surface is turned into a signal by an enzyme label.)

B1: VH 8 / VL 3 (antibody, V domains shown)
VH: EVQLLESGGGLVQPGGSLRLSCAASGFTFSSYAMHWVRQAPGKGLEWVAVISYDANYKYYADSVKGRFTISRDNSKNTLYLQMNSLRAEDTAVYYCAKDSRLRSLLYFEWLSQGYFDYWGQGTLVTVSS
VL: DIQMTQSPSSLSASVGDRVTITCRSSQSITFDYKNYLAWYQQKPGKAPKLLIYAASSLQSGVPSRFSGSGSGTDFTLTISSLQPEDFATYYCQQHYRTPPSFGQGTKVEIK
As for B1, the EC50 in experiment [1] was 0.0218 nM; in experiment [2], 0.0286 nM.

B2: VH 3 / VL 2 (antibody, V domains shown)
VH: QVQLVESGGGVVQPGRSLRLSCAASGFTFSTYAMHWVRQAPGKGLEWVAVISYDANYKYYADSVKGRFTISRDNSKNTLYLQMNSLRAEDTAVYYCAKDSQLRSLLYFEWLSQGYFDYWGQGTLVTVSS
VL: DIQMTQSPSSLSASVGDRVTITCRSSQSITFDYKNYLAWYQQKPGKAPKLLIYWGSSLQSGVPSRFSGSGSGTDFTLTISSLQPEDFATYYCQQHYRTPPSFGQGTKVEIK
For B2, the 50% effective concentration (EC50) was 0.019 nM in experiment [1] and 0.0313 nM in experiment [2].

B3: VH 7 / VL 6 (antibody, V domains shown)
VH: EVQLLESGGGLVQPGGSLRLSCAASGFTFSSYAMHWVRQAPGKGLEWVSVISYDANYKYYADSVKGRFTISRDNSKNTLYLQMNSLRAEDTAVYYCAKDSQLRSLLYFEWLSQGYFDYWGQGTTLTVSS
VL: EIVMTQSPATLSVSPGERATLSCRSSQSITFDYKNYLAWYQQKPGQAPRLLIYWGSTRATGIPARFSGSGSGTEFTLTISSLQSEDFAVYYCQQHYRTPPSFGQGTKVEIK
On to B3, for which the EC50 was 0.0239 nM in experiment [1] and 0.274 nM in experiment [2].

B4: VH 3 / VL 3 (antibody, V domains shown)
VH: QVQLVESGGGVVQPGRSLRLSCAASGFTFSTYAMHWVRQAPGKGLEWVAVISYDANYKYYADSVKGRFTISRDNSKNTLYLQMNSLRAEDTAVYYCAKDSQLRSLLYFEWLSQGYFDYWGQGTLVTVSS
VL: DIQMTQSPSSLSASVGDRVTITCRSSQSITFDYKNYLAWYQQKPGKAPKLLIYAASSLQSGVPSRFSGSGSGTDFTLTISSLQPEDFATYYCQQHYRTPPSFGQGTKVEIK
Take B4: the EC50 in experiment [1] worked out at 0.0246 nM; in experiment [2] it was 0.0386 nM.

B5: VH 5 / VL 4 (antibody, V domains shown)
VH: QVQLVESGGGVVQPGRSLRLSCAASGFTFSTYAMHWVRQAPGKGLEWVCVISYDANYKYYADSVKGRFTCSRDNSKNTLYLQMNSLRAEDTAVYYCARDSRLRSLLYFEWLSQGYFDYWGQGTLVTVSS
VL: DIVMTQSPDSLAVSLGERATINCKSSQSVTFDYKNYLAWYQQKPGQPPKLLIYWASTRESGVPDRFSGSGSGTDFTLTISSLQAEDVAVYYCQQHYRTPPSFGQGTKVEIK
For B5, the EC50 in experiment [1] came out at 0.0285 nM; in experiment [2] it was 0.0268 nM.

B6: VH 8 / VL 7 (antibody, V domains shown)
VH: EVQLLESGGGLVQPGGSLRLSCAASGFTFSSYAMHWVRQAPGKGLEWVAVISYDANYKYYADSVKGRFTISRDNSKNTLYLQMNSLRAEDTAVYYCAKDSRLRSLLYFEWLSQGYFDYWGQGTLVTVSS
VL: EIVMTQSPATLSVSPGERATLSCRSSQSITFDYKNYLAWYQQKPGQAPRLLIYSASTRATGIPARFSGSGSGTEFTLTISSLQSEDFAVYYCQQHYRTPPSFGQGTKVEIK
For B6, the EC50 in experiment [1] was determined as 0.0318 nM; in experiment [2] it was 0.0356 nM.

B7: VH 8 / VL 6 (antibody, V domains shown)
VH: EVQLLESGGGLVQPGGSLRLSCAASGFTFSSYAMHWVRQAPGKGLEWVAVISYDANYKYYADSVKGRFTISRDNSKNTLYLQMNSLRAEDTAVYYCAKDSRLRSLLYFEWLSQGYFDYWGQGTLVTVSS
VL: EIVMTQSPATLSVSPGERATLSCRSSQSITFDYKNYLAWYQQKPGQAPRLLIYWGSTRATGIPARFSGSGSGTEFTLTISSLQSEDFAVYYCQQHYRTPPSFGQGTKVEIK
As for B7, the EC50 in experiment [1] is 0.0269 nM; in experiment [2], 0.0261 nM.

B8: VH 5 / VL 6 (antibody, V domains shown)
VH: QVQLVESGGGVVQPGRSLRLSCAASGFTFSTYAMHWVRQAPGKGLEWVCVISYDANYKYYADSVKGRFTCSRDNSKNTLYLQMNSLRAEDTAVYYCARDSRLRSLLYFEWLSQGYFDYWGQGTLVTVSS
VL: EIVMTQSPATLSVSPGERATLSCRSSQSITFDYKNYLAWYQQKPGQAPRLLIYWGSTRATGIPARFSGSGSGTEFTLTISSLQSEDFAVYYCQQHYRTPPSFGQGTKVEIK
For the molecule B8, the values for the EC50 in experiment [1] and in experiment [2] were 0.0317 nM and 0.0295 nM, respectively.

B9: VH 10 / VL 2 (antibody, V domains shown)
VH: QVQLVQSGAEVKKPGSSVKVSCKASGFTFSTYAIHWVRQAPGQGLEWMGVISYDANYKYYAQKFQGRVTITRDNSKSTAYMELSSLRSEDTAVYYCARDSRLRSLLYFEWLSQGYFDYWGQGTTLTVSS
VL: DIQMTQSPSSLSASVGDRVTITCRSSQSITFDYKNYLAWYQQKPGKAPKLLIYWGSSLQSGVPSRFSGSGSGTDFTLTISSLQPEDFATYYCQQHYRTPPSFGQGTKVEIK
On to B9, for which the EC50 in experiment [1] is 0.0227 nM; in experiment [2], 0.0412 nM.

B10: VH 3 / VL 6 (antibody, V domains shown)
VH: QVQLVESGGGVVQPGRSLRLSCAASGFTFSTYAMHWVRQAPGKGLEWVAVISYDANYKYYADSVKGRFTISRDNSKNTLYLQMNSLRAEDTAVYYCAKDSQLRSLLYFEWLSQGYFDYWGQGTLVTVSS
VL: EIVMTQSPATLSVSPGERATLSCRSSQSITFDYKNYLAWYQQKPGQAPRLLIYWGSTRATGIPARFSGSGSGTEFTLTISSLQSEDFAVYYCQQHYRTPPSFGQGTKVEIK
For the molecule B10, the EC50 in experiment [1] worked out at 0.0268 nM; in experiment [2], 0.0313 nM.

B11: VH 6 / VL 2 (antibody, V domains shown)
VH: QVQLVESGGGVVQPGRSLRLSCAASGFTFDTYAMHWVRQAPGKGLEWVAVISYDANYKYYADSVKGRFTISRDNSKNTLYLQMNSLRAEDTAVYYCARDSRLRSLLYFEWLSQGYFDYWGQGTLVTVSS
VL: DIQMTQSPSSLSASVGDRVTITCRSSQSITFDYKNYLAWYQQKPGKAPKLLIYWGSSLQSGVPSRFSGSGSGTDFTLTISSLQPEDFATYYCQQHYRTPPSFGQGTKVEIK
As to B11, the figures for the EC50 in experiment [1] and in experiment [2] were 0.0207 nM and 0.108 nM, respectively.

B12: VH 12 / VL 2 (antibody, V domains shown)
VH: QVQLVQSGAEVKKPGASVKVSCKASGFTFSTYAINWVRQATGQGLEWMGVISYDANYKYYAQKFQGRVTMTRDTSISTAYMELSSLRSEDTAVYYCARDSQLRSLLYFEWLSQGYFDYWGQGTTLTVSS
VL: DIQMTQSPSSLSASVGDRVTITCRSSQSITFDYKNYLAWYQQKPGKAPKLLIYWGSSLQSGVPSRFSGSGSGTDFTLTISSLQPEDFATYYCQQHYRTPPSFGQGTKVEIK
As for B12, the EC50 in experiment [1] was determined as 0.0161 nM; in experiment [2] it was 88.9 nM.

B13: VH 5 / VL 2 (antibody, V domains shown)
VH: QVQLVESGGGVVQPGRSLRLSCAASGFTFSTYAMHWVRQAPGKGLEWVCVISYDANYKYYADSVKGRFTCSRDNSKNTLYLQMNSLRAEDTAVYYCARDSRLRSLLYFEWLSQGYFDYWGQGTLVTVSS
VL: DIQMTQSPSSLSASVGDRVTITCRSSQSITFDYKNYLAWYQQKPGKAPKLLIYWGSSLQSGVPSRFSGSGSGTDFTLTISSLQPEDFATYYCQQHYRTPPSFGQGTKVEIK
For the molecule B13, the EC50 in experiment [1] came to 0.0231 nM; in experiment [2], 0.0219 nM.

B14: VH 10 / VL 6 (antibody, V domains shown)
VH: QVQLVQSGAEVKKPGSSVKVSCKASGFTFSTYAIHWVRQAPGQGLEWMGVISYDANYKYYAQKFQGRVTITRDNSKSTAYMELSSLRSEDTAVYYCARDSRLRSLLYFEWLSQGYFDYWGQGTTLTVSS
VL: EIVMTQSPATLSVSPGERATLSCRSSQSITFDYKNYLAWYQQKPGQAPRLLIYWGSTRATGIPARFSGSGSGTEFTLTISSLQSEDFAVYYCQQHYRTPPSFGQGTKVEIK
For the molecule B14, the EC50 in experiment [1] was found to be 0.0175 nM; in experiment [2], 0.0695 nM.

B15: VH 11 / VL 4 (antibody, V domains shown)
VH: QVQLVQSGAEVKKPGASVKVSCKASGFTFSTYAINWVRQATGQGLEWMGWISYDANYKYYAQKFQGRVTMTRDTSISTAYMELSSLRSEDTAVYYCAKDSQLRSLLYFEWLSQGYFDYWGQGTTLTVSS
VL: DIVMTQSPDSLAVSLGERATINCKSSQSVTFDYKNYLAWYQQKPGQPPKLLIYWASTRESGVPDRFSGSGSGTDFTLTISSLQAEDVAVYYCQQHYRTPPSFGQGTKVEIK
As for B15, the EC50 in experiment [1] is 0.0244 nM; in experiment [2], 112 nM.

B16: VH 10 / VL 4 (antibody, V domains shown)
VH: QVQLVQSGAEVKKPGSSVKVSCKASGFTFSTYAIHWVRQAPGQGLEWMGVISYDANYKYYAQKFQGRVTITRDNSKSTAYMELSSLRSEDTAVYYCARDSRLRSLLYFEWLSQGYFDYWGQGTTLTVSS
VL: DIVMTQSPDSLAVSLGERATINCKSSQSVTFDYKNYLAWYQQKPGQPPKLLIYWASTRESGVPDRFSGSGSGTDFTLTISSLQAEDVAVYYCQQHYRTPPSFGQGTKVEIK
B16: the EC50 was determined as 0.0181 nM in experiment [1] and 0.0241 nM in experiment [2].

B17: VH 9 / VL 4 (antibody, V domains shown)
VH: QVQLVQSGAEVKKPGSSVKVSCKASGFTFSTYAIHWVRQAPGQGLEWMGVISYDANYKYYAQKFQGRVTITRDNSKSTAYMELSSLRSEDTAVYYCAKDSQLRSLLYFEWLSQGYFDYWGQGTTLTVSS
VL: DIVMTQSPDSLAVSLGERATINCKSSQSVTFDYKNYLAWYQQKPGQPPKLLIYWASTRESGVPDRFSGSGSGTDFTLTISSLQAEDVAVYYCQQHYRTPPSFGQGTKVEIK
For B17, the values for the 50% effective concentration (EC50) in experiment [1] and in experiment [2] were 0.0186 nM and 0.0608 nM, respectively.

The values are drawn from patent publication US20230257449A1 (published 2023).
